# Assay results as given in article PMC10514136, “Peptide-conjugated antimiRs improve myotonic dystrophy type 1 phenotypes by promoting endogenous MBNL1 expression” (Molecular Therapy. Nucleic Acids, 2023).
# Where “and” joins values, the source holds several entries; their conditions need not be identical. Equal entries are not always repeated.
# What was measured:
# [1] = test system: Clcn1 exon 7a; assay: Alternative splicing of Clcn1 exon 7a in muscle by RT-PCR (PSI, splice recovery); assay type: in vivo, mouse; conditions: HSALR mice, individual mice; for Percentage spliced-in (PSI) Clcn1 Gast: 9.2 mg/kg (mean) i.v. x3, day 45, gastrocnemius; for Percentage spliced-in (PSI) Clcn1 Quads: 9.2 mg/kg (mean) i.v. x3, day 45, quadriceps
# Protocol: (§1) Total RNA from murine gastrocnemius and quadriceps muscle was isolated using the miRNeasy Mini Kit (QIAGEN, Hilden, Germany) according to the manufacturer’s instructions. One microgram of RNA was digested with DNase I (Invitrogen, Carlsbad, CA) and reverse transcribed with SuperScript II (Invitrogen) using random hexanucleotides. For subsequent PCR reactions, 20 ng of cDNA was used with GoTaq polymerase (Promega). Specific primers were used to analyze the alternative splicing of Nfix, Atp2a1, and Clcn1 in mouse samples (both muscles). Gapdh levels established the endogenous reference levels using 0.2 ng of cDNA. PCR products were separated on a 2% agarose gel and quantified using ImageJ software (NIH, Bethesda, MD). PSR index was defined as value%SI minus X¯%DSI , divided by X¯%DSI minus X¯%HSI (SI, splicing inclusion of each sample; DSI, disease splicing inclusion; HSI, healthy splicing inclusion). Overall, PSR indicates the amount in both muscles analyzed. Primer sequences and exons analyzed are available in Cerro-Herreros et al.[20] In the case of off-targets, interleukins, and muscle regeneration marker Mstn-1, primers sequences are available in Table S5. We used 1 ng of mouse tissue cDNA as a template for multiplex qPCR using the QuantiFast Probe PCR Kit reagent. Commercial TaqMan probes (QIAGEN) were used for mouse (Mbnl1 and Mbnl2; FAM-labeled probes) and reference (GAPDH; MAX-labeled probe) genes. Results were normalized to Gapdh endogenous gene expression.
# (§2) We used homozygous transgenic HSA^LR (line 20 b) mice,[90] which were kindly provided by Dr Thornton (Rochester, NY) and were housed and bred in our animal facility. Experimental groups were FVB as healthy control and HSA^LR treated with a scrambled ON (SC) and PBS as negative controls, and HSA^LR mice treated with all six experimental CPP-PMOs. The mice were randomly allocated to the different treatments as follows: in each cage, each mouse was ear-marked as it was taken out, and each mouse was then assigned to a different treatment. […] Mice were sacrificed 45 days after the first injection and the tissues of interest were frozen in liquid nitrogen for the molecular and histological assays. All the mice used in this study ranged from 5 to 5.5 months of age and all were males.
# [2] = test system: DM1 cells; assay: Cell proliferation assay (CellTiter 96 AQueous), cell growth inhibition after lipofection; assay type: cell-based, human
# Protocol: Cells seeded at 10^5 cells/mL in 96-well plates were transfected 24 h later with antimiRs as described previously.[20] After 96 h, cell proliferation was measured using the CellTiter 96 AQueous Non-Radioactive Cell Proliferation Assay (Promega, Madison, WI). Absorbance levels were determined using an Infinite M200 PRO plate reader (Tecan, Männedorf, Switzerland) and the TC50 was calculated using non-linear least-squares regression.
# [3] = test system: HSALR mice; assay: Serum biochemistry profile; assay type: in vivo, mouse; conditions: mouse, in vivo, iv, 9.2 mg/kg
# Text: Mouse handling and experimental procedures followed the European law regarding laboratory animal care and experimentation (2003/65/C.E.) and were approved by Conselleria de Agricultura, […] (reference no. A1539961490857). We used homozygous transgenic HSA^LR (line 20 b) mice,[90] which were kindly provided by Dr Thornton (Rochester, NY) and were housed and bred in our animal facility. […] The mice were randomly allocated to the different treatments as follows: in each cage, each mouse was ear-marked as it was taken out, and each mouse was then assigned to a different treatment. Animals were injected biweekly intravenously with 150 μL of 1× PBS vehicle (controls; […] Mice were sacrificed 45 days after the first injection and the tissues of interest were frozen in liquid nitrogen for the molecular and histological assays. All the mice used in this study ranged from 5 to 5.5 months of age and all were males. At 45 days post treatment, animals were sacrificed, and blood was collected by cardiac puncture exsanguination with K3-EDTA (Sarstedt, Nümbrecht, Germany). The samples were analyzed by Laboratorios Montoro Botella (Valencia, Spain).
# [4] = ELISA determination of antimiR conjugate concentrations in tissues; assay type: in vivo, mouse; conditions: HSALR mice, 9.2 mg/kg (mean) i.v. x3, day 45, 9.2 mg/kg; for CPP-PMO concentration (pM), Brain / CPP-PMO concentration (pM), Gastrocnemius / CPP-PMO concentration (pM), Heart / CPP-PMO concentration (pM), Kidney / CPP-PMO concentration (pM), Liver / CPP-PMO concentration (pM), Quadriceps: hybridization ELISA, background subtracted, individual mice; for CPP-PMO levels in tissues, in words: ELISA in kidney, liver, heart, quadriceps, gastrocnemius, brain
# Protocol: Custom ELISA-based measurements of antimiR conjugate concentrations in brain, kidney, liver, heart, gastrocnemius, and quadriceps from treated HSA^LR mice were performed as described in Burki et al.,[89] using the following phosphorothioate probes: for miR-218 (5′ → 3′) [DIG] T∗T∗G∗T∗G∗C∗T∗TGATCTA∗A∗C∗C∗A∗T∗G∗T [BIO]; for miR-23b (5′ → 3′) [BIO] A∗T∗C∗A∗C∗A∗T∗TGCCAGG∗G∗A∗T∗T∗A∗C∗C [DiG] double-labeled with digoxigenin (DIG) and biotin (BIO). In all cases, a control sample was used to subtract the background (HSA^LR treated with PBS for 9b2 and 9b2-KC ONs; HSA^LR treated with Scramble for 6aKC ONs).
# Mouse handling and experimental procedures followed the European law regarding laboratory animal care and experimentation (2003/65/C.E.) and were approved by Conselleria de Agricultura, Generalitat Valenciana (reference no. A1539961490857). We used homozygous transgenic HSA^LR (line 20 b) mice,[90] which were kindly provided by Dr Thornton (Rochester, NY) and were housed and bred in our animal facility. Experimental groups were FVB as healthy control and HSA^LR treated with a scrambled ON (SC) and PBS as negative controls, and HSA^LR mice treated with all six experimental CPP-PMOs. The mice were randomly allocated to the different treatments as follows: in each cage, each mouse was ear-marked as it was taken out, and each mouse was then assigned to a different treatment. Animals were injected biweekly intravenously with 150 μL of 1× PBS vehicle (controls; HSA^LR n = 7 and FVB n = 6) or 150 μL of a solution 1.875 mg/mL of the test CPP-PMOs corresponding to an average dose of 9.2 mg/kg (HSA^LR mice: SC n = 5, 9b2-218 n = 5, 9b2-23b n = 5, […] n = 5, […] n = 5, 6aKC-218 n = 5, and 6aKC-23b n = 5; see Table S6 for precise dosing). Mice were sacrificed 45 days after the first injection and the tissues of interest were frozen in liquid nitrogen for the molecular and histological assays. All the mice used in this study ranged from 5 to 5.5 months of age and all were males.
# [5] = test system: Nfix exon 7; assay: Alternative splicing of Nfix exon 7 in muscle by RT-PCR (PSI, splice recovery); assay type: in vivo, mouse; conditions: HSALR mice, individual mice; for Percentage spliced-in (PSI) Nfix Gast: 9.2 mg/kg (mean) i.v. x3, day 45, gastrocnemius; for Percentage spliced-in (PSI) Nfix Quads: 9.2 mg/kg (mean) i.v. x3, day 45, quadriceps
# Protocol: as §1, §2
Substance,Percentage spliced-in (PSI) Clcn1 Gast [1],Percentage spliced-in (PSI) Clcn1 Quads [1],TC50 [2] [µM],ALT [3],Alkaline Phosphatase [3],Amylase [3],Bile Acids [3],Bilirubin [3],Creatinine [3],Lipase [3],Urea [3],"CPP-PMO concentration (pM), Brain [4]","CPP-PMO concentration (pM), Gastrocnemius [4]","CPP-PMO concentration (pM), Heart [4]","CPP-PMO concentration (pM), Kidney [4]","CPP-PMO concentration (pM), Liver [4]","CPP-PMO concentration (pM), Quadriceps [4]",Percentage spliced-in (PSI) Nfix Gast [5],Percentage spliced-in (PSI) Nfix Quads [5],other results
"9b2-23b (antisense GGUAAUCCCUGGCAAUGUGAU; all phosphorodiamidate morpholino (PMO), T or U not given here; Pip9b2 peptide conjugated)",26.85% and 32.69% and 33.28% and 26.86% and 11.37%,0.61%,0.088,"47 ± 6,708 U/L","61 ± 4,301 U/L","2754,4 ± 540,954 U/L","9 ± 11,747 µmol/L","0,102 ± 0,029 mg/dL","0,26 ± 0,054 mg/dL","36,60 ± 8,264 U/L","53 ± 2,345 mg/dL",84.29 pM and 5.89 pM and 3.33 pM,1173.05 pM and 672.99 pM and 96.96 pM,458.72 pM and 70.02 pM and 540.73 pM,417329.90 pM and 445161.13 pM and 596014.00 pM,14705.39 pM and 13935.38 pM and 16995.86 pM,664.60 pM and 444.65 pM and 237.24 pM,55.08% and 63.11% and 66.38% and 63.52% and 47.66%,15.30% and 54.78% and 4.40% and 48.44% and 23.44%,urea values vs HSALR group treated with PBS [3]: statistically significant increase in the urea values
"9b2-218 (antisense ACAUGGUUAGAUCAAGCACAA; all phosphorodiamidate morpholino (PMO), T or U not given here; Pip9b2 peptide conjugated)",5.28% and 30.49% and 30.67% and 18.06% and 25.23%,4.09%,0.042,"49 ± 19,079 U/L","61,40 ± 6,730 U/L","2773,2 ± 363,954 U/L","74,80 ± 159,433 µmol/L","0,108 ± 0,044 mg/dL","0,32 ± 0,192 mg/dL","63,8 ± 75,793 U/L","44,40 ± 6,985 mg/dL",33.45 pM and 18.40 pM and 128.86 pM,504.97 pM and 1534.26 pM and 428.98 pM,1166.04 pM and 1995.51 pM and 1662.31 pM,348919.38 pM and 303314.43 pM and 726042.17 pM,16959.56 pM and 11986.59 pM and 23535.44 pM,482.70 pM and 1344.85 pM and 1437.67 pM,58.31% and 29.97% and 59.09% and 66.06% and 69.09%,30.95% and 10.51% and 43.26% and 15.39% and 35.59%,–
"9b2KC-23b (antisense GGUAAUCCCUGGCAAUGUGAU; all phosphorodiamidate morpholino (PMO), T or U not given here; Pip9b2KC peptide conjugated)",18.78% and 26.33% and 30.11% and 15.58% and 38.58%,29.66% and 22.47% and 19.41% and 27.99% and 26.94%,0.256,"45,20 ± 1,303 U/L","58,8 ± 5,718 U/L","2952,6 ± 123,373 U/L","8,40 ± 8,264 µmol/L","0,10 ± 0,045 mg/dL","0.20 ± 0,071 mg/dL","30,6 ± 6,730 U/L","43,6 ± 6,580 mg/dL",17.78 pM and 0.01 pM and 0.87 pM,3.32 pM and 2.34 pM and 0.01 pM,256.63 pM and 2.97 pM and 105.40 pM,404860.30 pM and 2213436.59 pM and 1672927.68 pM,113314.70 pM and 27707.42 pM and 93287.30 pM,127.62 pM and 457.08 pM and 0.82 pM,45.55% and 53.38% and 57.04% and 62.73% and 57.17%,54.10% and 56.90% and 66.58% and 51.62% and 56.46%,"CPP-PMO levels in tissues, in words [4]: lower muscle levels; CPP-PMO levels in tissues, in words ([4]; listed as 9bKC-23b): accumulation in liver was higher compared with our target tissues"
